From patent publication US20170016892A1, “LOCALIZED SURFACE PLASMON RESONANCE SENSING OF HUMAN PERFORMANCE BIOMARKERS USING SHORT PEPTIDE RECOGNITION ELEMENTS ON OPTICALLY ACTIVE METAL NANOSTRUCTURES” (Government of the United States as Represented by the …, priority 2015, published 2017)
Where no end group is shown, it is not given here.

Columns and labels:
cTnI [1] = target: T1, cTnI (Homo sapiens, UniProt P19429); assay: binding affinity of phage-display-identified peptide to cTnI; settings: peptide identified from a phage display peptide library
T1 sequence (P19429 whole entry): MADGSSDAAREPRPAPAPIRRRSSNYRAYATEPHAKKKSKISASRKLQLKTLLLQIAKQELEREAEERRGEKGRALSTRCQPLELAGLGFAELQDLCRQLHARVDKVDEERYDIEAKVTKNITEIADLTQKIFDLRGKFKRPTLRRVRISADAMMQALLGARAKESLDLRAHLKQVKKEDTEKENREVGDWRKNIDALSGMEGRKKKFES
From the text: Human troponin I binding peptide (Seq. ID No. 1), identified from a phage display peptide library, with nanomolar (nM) binding affinity to cTnI. Conjugation of the peptide to AuNR was achieved by introducing a cysteine resident at the C-terminus of the peptide (Seq. ID No. 2), to facilitate binding via an Au—S linkage.

cTnI [2] = target: T1, cTnI; assay: LSPR shift of BPDs on exposure to troponin in buffer; type: binding
Experimental: To probe the sensing capability of the BPDs, each BPD was exposed to troponin 1 (3.53 μg/mL in 0.1 M TBS, pH 8.0). […] The higher sensitivity of peptide-AuNR as compared to the sensitivity of the antibody-AuNR was believed to be due to differences in the thickness of the peptide and antibody adsorbate layer.
To probe the limit of detection in both the peptide- and antibody-AuNR BPDs, each BPD was exposed to varying concentrations of cTnI.

[3] = target: human serum albumin (HSA) (Homo sapiens, UniProt P02768); assay: selectivity of BPDs with human serum albumin as interfering protein (LSPR shift); type: binding; settings: high concentrations of HSA
From the text: To compare selectivity of both the peptide- and antibody-AuNR BPDs towards cTnI, human serum albumin (“HSA”) was used as an interfering protein.

[4] = thermal and shelf-life stability of BPDs by measured LSPR shift; type: physicochemical; settings: incubated at 4° C. and at 60° C., each for 48 hrs
Experimental: To compare stability of both the peptide- and antibody-AuNR BPDs, each BPD type was incubated at 4° C. and at 60° C., each for 48 hrs. […] This reduction is believed to be due to antibody denaturation and lose molecular recognition at elevated temperatures.

cTnI [5] = target: T1, cTnI; assay: detection of troponin in human plasma with peptide-based BPDs (LSPR shift); type: binding
Experimental: (§1) Peptide-based BPDs prepared in accordance with embodiments of the present invention were used in detection of troponin in complex physiological fluids, including, for example, human plasma and sweat. To reduce nonspecific binding, the BPDs were first exposed to 1% HAS to block non-specific sites. […] The limit of detection of cTnI in human plasma was 353 pg/mL, which was within physiological relevant concentration range of troponin in human plasma (0.010 ng/mL to 10 ng/mL). […] Moreover, detection of troponin in artificial eccrine sweat at physiologically-relevant concentration was also accomplished (see, FIG. 16B).

troponin = troponin (Homo sapiens, UniProt P19429); assay: detection of troponin in artificial eccrine sweat with peptide-based BPDs (LSPR shift); type: binding
troponin, sequence (P19429 whole entry): as above
Experimental: as §1

cardiac troponin I = target: T2, cardiac troponin I (human, UniProt P19429 2-210, limits assumed); assay: LSPR shift after troponin binding, peptide-AuNR against anti-cTnI-AuNR as reference
T2 construct: It was used in 0.1 M TBS pH 8.0, and spiked in human plasma and artificial eccrine sweat; also called cTnI; troponin 1
T2 sequence (P19429 2-210 limits assumed): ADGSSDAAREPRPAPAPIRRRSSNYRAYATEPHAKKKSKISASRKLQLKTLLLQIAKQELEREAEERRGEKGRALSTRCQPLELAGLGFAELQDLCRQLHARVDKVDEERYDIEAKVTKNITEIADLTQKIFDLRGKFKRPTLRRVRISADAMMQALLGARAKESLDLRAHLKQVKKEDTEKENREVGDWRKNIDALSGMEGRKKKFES

Human troponin I binding peptide: Human troponin I binding peptide (Seq. ID No. 1), identified from a phage display peptide library (FYSHSFHENWPS)
binding affinity to cTnI (cTnI [1]): nanomolar

peptide-AuNR: Troponin I binding peptide with C-terminal cysteine (Seq. ID No. 2) conjugated to gold nanorods via Au—S linkage, adsorbed on filter paper (FYSHSFHENWPSC; not fully specified (residue 13); also: conjugated to gold nanorods via Au–S bond of C-terminal Cys)
LSPR red shift on exposure to troponin (cTnI [2]; troponin 1 3.53 μg/mL in 0.1 M TBS, pH 8.0): 12.3 nm | limit of detection of cTnI (cTnI [2]; varying concentrations of cTnI): about 35.3 pg/mL | LSPR shift upon exposure to HSA [3]: small LSPR shifts | stability (measured LSPR shift after incubation) [4]: remarkable thermal and temporal stability | LSPR shift with increased troponin concentration (cTnI [5]): monotonic increase | limit of detection of cTnI in human plasma (cTnI [5]; BPDs first blocked with 1% HAS): 353 pg/mL | LSPR shift with increased troponin concentration (troponin): monotonic increase | detection of troponin at physiologically-relevant concentration (troponin): accomplished

B1: Human troponin I binding peptide with a cysteine residue introduced at the C-terminus (Seq. ID No. 2), conjugated to gold nanorods (AuNR) (peptide)
peptide: FYSHSFHENWPSC(AuNR)
notes: ID No. 1 is the parent phage-display peptide; ID No. 2 is the same peptide with an added C-terminal Cys, and it is the form on the AuNRs in the assays; also called peptide-AuNR
LSPR shift relative to antibodies as recognition elements (cardiac troponin I): ~100 % higher
